assay: soluble on expression in E. coli; label from the status in PepcDB or PDB records

Row | Sequence | soluble on expression in E. coli
1 | MSLDNHNPKKSTTPNNEFHKKIATTGKIINLPKQSIVPAVSISVYNDMKTIVLTPMEFQLSSIGFQFQNLIIDLPHSTISTNCITFYYHQDHILIDLIDQNYLFITLKIAIDRFILGGQQLTLDNFEEWGYISVPYSFELRSSPFLLKCLDNLNLIVSLKDGGLLHFKRDEELGEINVFNFQEQGTLIPFLGFFGSGKQKDVVLDGVSSNSIVDALQIGGSGVVITLSVNKVLKLWNLDGHQNLSSLTIASDDNTWLPTIPSKYLKSYDQEDGKTIITLFINTKSGDSSKSMFVFKSFELESSNEGHHHHHH | not soluble
2 | MSLLGRVLLFYKKGIFNDDLKKFLRSKNINVIDVRIGKYVEVDIMDDPRKVISLIGEPLFMVTEISGTFKPLFYEMRFWECHEIIEEKWREVKNKDDKKFLQAIILLCASLIKYLKGEIEVSDMLMEKALSLISDLPQELLPLLYISLGLNTEGHHHHHH | soluble
3 | MSDLVTKFESLIISKYPVSFTKEQSAQAAQWESVLKSGQIQPHLDQLNLVLRDNTFIVSTLYPTSTDVHVFEVALPLIKDLVASSKDVKSTYTTYRHILRWIDYMQNLLEVSSTDKLEINHDLDLPHEVIEKKKKAPAGGAADAAAKADEDVSKKAKKQDHPRGKPDEETLKKLREEAKAKKAAKKAANAKQQQEQQNKAPEKPKPSAIDFRVGFIQKAIKHPDADSLYVSTIDVGDEEGPRTVCSGLVKHFPLDAMQERYVVVVCNLKPVNMRGIKSTAMVLCGSNDDKVEFVEPPKDSKAGDKVFFEGFGDEAPMKQLNPKKKIWEHLQPHFTTNDGLEVIFKDEEEKDHPVRKLTNAKGESFKVASIANAQVR | not soluble
4 | SLSRISPGNFSTNSYTSTIIKDVRFCLLLCRSLMEGWRITLLNEQEKTIFVDADACPVKDEILQTASEYEVQVLFVASFEHYQLSRSNEEKWKYVDPHKEAADLYIANHVKPGDIVVTQDIGLASLLLNRNVSVMSERGRLYKEDTIDFALEGRHFSGKQRRKGVYAKGPKKLNKEDRERFITLLQKILSNDEGILH | not soluble
5 | MSLAAYSLPVDVEAEDCTLGNGAVVTTNVYGTQYPGYSGDGFVWVANSGTITLEVTIPENGMYELSTRCWMYLGKEDETRMQVISINGKSHSNYFIPNKGQWIDYSFGFFYLEAGKATIEIGSSGSWGFILYDKIYFDHADMPDHIIDPTPCDPNATPETRALMKYLTSVYGKYVISGQQEIYGNGNDGNYELEFDYIYEKTGKYPAIRGFDFMNYNPLYGWEDGTTARIIDWVKNRGGIATACWHINIPRDFASYKLGEPVDWTNCTYKPTSSFNTANCLDETTKEHAYLMMAIEDLAEQLLILQEQNIPILFRPFHEAEGYNNTDGSGAWFWWGSAGAEVYKELWKLLYKTLTEKYGIHNLIWEVNLYTYANSYEWYPGDEYVDIIGYDKYEGSPNTWGTSAASSLFLTLVNYTNDTKMVALTENDVIPDIQNIVNEEAWWLYFCPWYGDFLMSPRYNDPVLLNTIYNSEYVITLDELPENLYEYDGEIPDINYGDLNNDGNINSTDYMILKKYILKVLERMNVPEKAADLNGDGSINSTDLTILKRFIMKAITKFPVTQKEGHHHHHH | soluble
6 | MALPGERFHVLAQLEHLQSKYTGTAMRHEPSRMDCESAPRHSRLSNVSSRNEHVYCRCGEREPSSNPLQSDKSHDSAVWTASREESS | not soluble
7 | MFVEALKRQNPALISAALSLWQQGKIAPDSWVIDVDQILENGKRLIETARLYGIELYLMTKQFGRNPWLAEKLLALGYSGIVAVDYKEARVMRRAGLPVAHQGHLVQIPCHQVADAVEQGTDIITVFTLDKAREVSAAAVKAGRVQPVLLKVYSDDDFLYPGQESGFVQHSLHEVIAEIKKLPGLHLAGLTHFPCLLWDEAAGKVLPTPNLHTLVQARDQLAKSGIAIEQLNVPSATSCTSLPLLAEYGATHAEPGHALTGTIPANQQGDQPERIAMLWLSEISHHFRGDSYCYGGGYYRRGHAQHALVFTPENQKITETNLKTVDDSSIDYTLPLAGEYPVSSAVVLCFRTQIFVTRSDVVLVSGIQRGEPEIVGRYDSLGNPLEA | not soluble

From the DeepSol protein solubility set
